Test results as given in patent US20180142032A1 (Sanofi, published 2018).
Substitutions are numbered along the chain they refer to.

T1: cynomolgus monkey LAMP1 at the cell surface (cynomolgus monkey, UniProt P11279 29-417 (human entry))
T1 construct: also called cynoLAMP1; cynomolgus LAMP1
T1 chain: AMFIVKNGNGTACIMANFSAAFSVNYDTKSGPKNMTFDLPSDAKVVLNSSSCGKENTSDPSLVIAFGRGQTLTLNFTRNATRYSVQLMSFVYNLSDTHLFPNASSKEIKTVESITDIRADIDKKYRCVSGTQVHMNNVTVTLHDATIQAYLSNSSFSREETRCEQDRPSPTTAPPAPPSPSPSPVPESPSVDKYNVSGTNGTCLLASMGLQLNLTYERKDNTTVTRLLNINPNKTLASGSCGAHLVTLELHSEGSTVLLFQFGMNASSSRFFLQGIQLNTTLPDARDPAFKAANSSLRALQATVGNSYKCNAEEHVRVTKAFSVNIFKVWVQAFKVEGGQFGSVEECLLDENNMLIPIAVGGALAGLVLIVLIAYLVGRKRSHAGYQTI

T2: LAMP1::histag (human, UniProt P11279 29-382)
T2 construct: extracellular domain without signal peptide, C-terminal 6 His tag, made in HEK293 cells; also called recombinant human LAMP1; human LAMP1 (29-382)
T2 sequence: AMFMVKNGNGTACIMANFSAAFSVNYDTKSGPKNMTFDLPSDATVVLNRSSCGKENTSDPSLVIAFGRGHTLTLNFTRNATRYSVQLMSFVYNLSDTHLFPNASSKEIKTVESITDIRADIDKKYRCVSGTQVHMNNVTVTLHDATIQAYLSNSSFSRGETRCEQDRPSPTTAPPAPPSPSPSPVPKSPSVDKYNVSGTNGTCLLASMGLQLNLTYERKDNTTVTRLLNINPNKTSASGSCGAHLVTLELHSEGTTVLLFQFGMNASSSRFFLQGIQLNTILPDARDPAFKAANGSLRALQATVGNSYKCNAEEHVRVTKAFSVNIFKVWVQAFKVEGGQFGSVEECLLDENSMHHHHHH

T3: mLAMP1_L12_LAMP1_L34::histag (mouse/human hybrid)
T3 construct: mouse LAMP1 (25-189) and human LAMP1 (196-382), His tag; also called Loop1-2: mLAMP1 Loop3-4: hLAMP1
T3 chain: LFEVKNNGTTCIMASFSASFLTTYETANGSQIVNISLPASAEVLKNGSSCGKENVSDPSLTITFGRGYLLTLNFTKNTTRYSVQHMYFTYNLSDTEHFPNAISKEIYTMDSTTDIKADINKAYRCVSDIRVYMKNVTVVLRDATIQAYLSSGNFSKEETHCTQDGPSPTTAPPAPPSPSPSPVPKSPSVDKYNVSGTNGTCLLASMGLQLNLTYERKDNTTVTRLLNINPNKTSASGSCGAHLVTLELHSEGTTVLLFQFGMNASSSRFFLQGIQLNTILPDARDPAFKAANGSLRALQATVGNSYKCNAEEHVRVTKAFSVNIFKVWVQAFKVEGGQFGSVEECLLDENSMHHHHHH

T4: hLAMP1_ΔGYQTI (human, UniProt P11279 29-412)
T4 construct: also called pXL5626
T4 sequence: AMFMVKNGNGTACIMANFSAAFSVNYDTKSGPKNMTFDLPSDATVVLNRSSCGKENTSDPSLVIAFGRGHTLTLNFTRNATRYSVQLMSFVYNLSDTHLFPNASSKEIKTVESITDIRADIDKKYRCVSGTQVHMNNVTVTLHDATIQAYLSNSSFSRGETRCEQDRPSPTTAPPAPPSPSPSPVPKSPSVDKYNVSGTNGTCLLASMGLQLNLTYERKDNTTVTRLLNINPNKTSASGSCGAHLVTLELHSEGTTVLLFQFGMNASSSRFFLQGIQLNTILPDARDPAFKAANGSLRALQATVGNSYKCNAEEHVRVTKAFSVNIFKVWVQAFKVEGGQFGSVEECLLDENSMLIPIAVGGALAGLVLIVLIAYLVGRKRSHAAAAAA

T5: human LAMP1 at the cell surface (human, UniProt P11279 29-417)
T5 construct: native on tumour cells (PDX, Colo205, SW480, LS174T) or from the cloned CDS NM_005561.3 in HEK293 and HCT116; signal peptide 1-28 left out; also called huLAMP1; full length human LAMP1
T5 sequence: T4 sequence with A385G, A386Y, A387Q, A388T, A389I

B1: huMAb1_1 (antibody, human IgG1, kappa)
heavy: not shown
light: DIQMTQSPSSLSASVGDRVTITCKASQDIDRYMAWYQDKPGKAPRLLIHDTSTLQSGVPSRFSGSGSGRDYTLTISNLEPEDFATYYCLQYDNLWTFGGGTKVEIKRTVAAPSVFIFPPSDEQLKSGTASVVCLLNNFYPREAKVQWKVDNALQSGNSQESVTEQDSKDSTYSLSSTLTLSKADYEKHKVYACEVTHQGLSSPVTKSFNRGEC
notes: humanized, VH1-huIgG1 and VL1-huCk
B2: MAb1 (antibody, mouse IgG2a, kappa)
heavy: QVQLQQSGAELVKPGASVKMSCKASGYIFTNYNIHWVKKSPGQGLEWIGAIYPGNGDAPYSQKFKDKATLTADKSSSTTYMQLSRLTSEDSAVYYCVRANWDVAFAYWGQGTLVSVSAAKTTAPSVYPLAPVCGDTTGSSVTLGCLVKGYFPEPVTLTWNSGSLSSGVHTFPAVLQSDLYTLSSSVTVTSSTWPSQSITCNVAHPASSTKVDKKIEPRGPTIKPCPPCKCPAPNLLGGPSVFIFPPKIKDVLMISLSPIVTCVVVDVSEDDPDVQISWFVNNVEVHTAQTQTHREDYNSTLRVVSALPIQHQDWMSGKEFKCKVNNKDLPAPIERTISKPKGSVRAPQVYVLPPPEEEMTKKQVTLTCMVTDFMPEDIYVEWTNNGKTELNYKNTEPVLDSDGSYFMYSKLRVEKKNWVERNSYSCSVVHEGLHNHHTTKSFSRTPGK
light: DIQMTQSPPSLSASLGGKVTITCKASQDIDRYMAWYQDKPGKGPRLLIHDTSTLQPGIPSRFSGSGSGRDYSFSISNLEPEDIATYYCLQYDNLWTFGGGTKLEIKRADAAPTVSIFPPSSEQLTSGGASVVCFLNNFYPKDINVKWKIDGSERQNGVLNSWTDQDSKDSTYSMSSTLTLTKDEYERHNSYTCEATHKTSTSPIVKSFNRNEC
notes: murine monoclonal IgG, kappa, from hybridoma; also called murine MAb1
B3: MAb2 (antibody, mouse IgG1, kappa)
heavy: QVQLQQSAAELARPGASVKMSCKASGYTFTSYTMHWVKQRPGQGLEWIGYFNPSSGYPEYNQKFKDKTTLTADKSSNTAFIQLNSLTSEDSAVYYCSRGYYYGSRGYALDFWGQGASVTVSSAKTTPPSVYPLAPGSAAQTNSMVTLGCLVKGYFPEPVTVTWNSGSLSSGVHTFPAVLQSDLYTLSSSVTVPSSTWPSETVTCNVAHPASSTKVDKKIVPRDCGCKPCICTVPEVSSVFIFPPKPKDVLTITLTPKVTCVVVDISKDDPEVQFSWFVDDVEVHTAQTQPREEQFNSTFRSVSELPIMHQDWLNGKEFKCRVNSAAFPAPIEKTISKTKGRPKAPQVYTIPPPKEQMAKDKVSLTCMITDFFPEDITVEWQWNGQPAENYKNTQPIMDTDGSYFVYSKLNVQKSNWEAGNTFTCSVLHEGLHNHHTEKSLSHSPGK
light: NIVLTQSPVSLAVSLGQRATISCRASESVDINGNTFMHWYQQKPGQSPKLVIYAASNIESGVPARFSGSGSSTDFTFTIDPVEADDVATYYCQQNIEDPWTFGGGTKVEIKRADAAPTVSIFPPSSEQLTSGGASVVCFLNNFYPKDINVKWKIDGSERQNGVLNSWTDQDSKDSTYSMSSTLTLTKDEYERHNSYTCEATHKTSTSPIVKSFNRNEC
notes: murine monoclonal IgG, kappa, from hybridoma; also called murine MAb2
B4: MAb3 (antibody, V domains shown)
VH: QIQLVQSGPELKKPGETVKISCKASGYIFTNYGMNWVKQAPGKGLKWMGWINTYTGESRYADDFKGRFALSLETSASTAYLQINNLENEDMATYFCAREDYYGNSPWFFDVWGAGTTVTVSS
VL: DIQMTQTTSSLSASLGDRVTISCNASQGINKYLNWYQQKPDGTVKLLIYYTSTLHSGVPSRFSGSGSGTDYSLTINNLEPEDIATYYCQQYTKLPFTFGSGTKLEIK
notes: murine monoclonal IgG, kappa, from hybridoma; also called murine MAb3

Legend:
[1] = target: T1, cynomolgus monkey LAMP1 at the cell …; assay: flow cytometry, HEK293 cynoLAMP1 clone 44
[2] = target: T2, LAMP1::histag; assay: ELISA on recombinant human LAMP1
[3] = target: T3, mLAMP1_L12_LAMP1_L34::histag; assay: ELISA
[4] = target: T2, LAMP1::histag; assay: ELISA
[5] = target: T4, hLAMP1_ΔGYQTI; assay: flow cytometry, transfected 293-F cells, experiment 1
[6] = target: T2, LAMP1::histag; assay: ELISA with LAMP1
[7] = target: T5, human LAMP1 at the cell surface; assay: flow cytometry, dissociated CR-IGR-034P colon PDX cells
Method: Advanced human primary colon tumor CR-IGR-034P was obtained from Patient-derived xenograft in mice. Tumor CR-IGR-034P was enzymatically dissociated using collagenase Type IV (Invitrogen; #17104-019) and deoxyribonuclease I (Invitrogen; #18047-019) for 1 h at 4° C. Cell viability was estimated by Viacount application using Guava® easyCyte™ 8HT Flow Cytometry System. […] 100 μL/well of goat anti-mouse IgG conjugated with Alexa647 (Invitrogen; # A2135) or goat anti-human IgG conjugated with Alexa488 (Invitrogen; # A11013) was added for 45 min at 4° C. and washed three times with PBS 1% BSA. The antibody binding was evaluated after centrifugation and resuspension of cells by adding 200 μl/well PBS 1% BSA and read using Guava® easyCyte™ 8HT Flow Cytometry System. EC50 values were estimated using BIOST@T-SPEED software.

| Binder | EC50 [1] [nM] | EC50 [2] [nM] | binding result [3] | EC50 [4] [nM] | mean fluorescence [5] | EC50 [6] [nM] | EC50 [7] [nM] |
| --- | --- | --- | --- | --- | --- | --- | --- |
| B1 | 30.1 | – | – | – | – | – | – |
| B2 | – | 0.18 | no binding | 0.18 | 1750 | 0.18 | – |
| B3 | – | 0.25 | no binding | 0.25 | – | 0.25 | 14 |
| B4 | – | – | – | – | – | – | 6 |
